We go through two substances from doi:10.1101/2021.03.22.436508.

Assay [1] concerns the target Vibrio cholerae ParE2 toxin with C-terminal histidine tag (Vibrio cholerae biovar El Tor strain N16961). The experiment in a line: SAXS.
The target of assay [2] is Vibrio cholerae ParD2 antitoxin (Vibrio cholerae biovar El Tor strain N16961). As to the kind of experiment: native MS.
Assay [3] addresses Vibrio cholerae ParE2 toxin with C-terminal histidine tag (Vibrio cholerae biovar El Tor strain N16961). The experiment in a line: native MS.
Assay [4] concerns the target Vibrio cholerae ParD2 antitoxin (Vibrio cholerae biovar El Tor strain N16961). As to the kind of experiment: crystal structure.
Assay [5] has the same target. The experiment in a line: crystal structure. The source holds these as a separate data set.
Assay [6] has as its target Vibrio cholerae ParE2 toxin with C-terminal histidine tag (Vibrio cholerae biovar El Tor strain N16961). The experiment in a line: crystal structure.
For assay [7] the target is unchanged. As to the kind of experiment: SEC-MALS. (In general: Size exclusion chromatography separates by hydrodynamic size, large species first.)
The target of assay [8] is Vibrio cholerae ParD2:ParE2 6:2 hetero-octameric complex (Vibrio cholerae biovar El Tor strain N16961). The experiment in a line: native MS.

The term stoichiometry N denotes the number of molecules, sites or subunits per partner or assembly.

With “Vibrio cholerae ParD2 antitoxin (natural protein)”, the stoichiometry N (ParD2 per ParE2 (printed as 6:2)) in assay [1], in assay [3], in assay [6] and in assay [7] was 3 in each case. Also, the stoichiometry N was 2 in assay [2], 6 in assay [4] and 2 in assay [5].

For the substance “Vibrio cholerae ParD2:ParE2 6:2 hetero-octameric complex”, the stoichiometry N in assay [8] came out at 2.
